The values below come from patent US20120315703A1.

The test deals with Lrh-1 (liver receptor homolog 1, Nr5a2) (mouse) (UniProt P45448). The test can be described thus: cell-based or functional assay.
UniProt P45448, sequence (P45448 whole entry): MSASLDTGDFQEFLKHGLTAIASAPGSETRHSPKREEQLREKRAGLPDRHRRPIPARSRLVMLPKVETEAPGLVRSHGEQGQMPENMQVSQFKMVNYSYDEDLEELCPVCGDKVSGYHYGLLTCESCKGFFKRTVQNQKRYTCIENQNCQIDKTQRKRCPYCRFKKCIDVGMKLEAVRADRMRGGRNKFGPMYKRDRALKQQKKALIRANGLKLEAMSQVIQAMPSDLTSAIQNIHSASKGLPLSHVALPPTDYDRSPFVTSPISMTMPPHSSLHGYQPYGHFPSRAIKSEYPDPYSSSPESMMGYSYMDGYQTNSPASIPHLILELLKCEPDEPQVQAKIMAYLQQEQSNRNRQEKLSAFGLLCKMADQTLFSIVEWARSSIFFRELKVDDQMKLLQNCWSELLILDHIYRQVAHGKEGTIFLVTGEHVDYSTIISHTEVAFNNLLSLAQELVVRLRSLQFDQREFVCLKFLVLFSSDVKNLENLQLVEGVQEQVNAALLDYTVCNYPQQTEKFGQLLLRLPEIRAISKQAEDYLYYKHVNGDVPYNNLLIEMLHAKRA

The substance “Rarg (retinoic acid receptor gamma), full-length (from UniProt P18911 1-458)” gave a luciferase reporter expression (luciferase cassette linked to the Oct4 promoter), fold increase on co-expression of 4 to 5 fold.
